Where a chain is given by its changes, count along the chain named.
B1: GA2ox4-B WT (dsDNA)
DNA 1: TCCCAAATTTTCGAATTATTAGGGGACCATTTTTTTTAAAAAAA
DNA 2: TTTTTTTAAAAAAAATGGTCCCCTAATAATTCGAAAATTTGGGA
B2: GA2ox4-B mut (dsDNA)
DNA 1: B1 DNA 1 with G23A, G24A, G25A, C27A, C28A
DNA 2: B1 DNA 2 with G17T, G18T, C20T, C21T, C22T
B3: LOG4-A WT (dsDNA)
DNA 1: AGTAATCCTATTAGAAAAATGGGCCATGGACCTTGCCTTACCTAC
DNA 2: GTAGGTAAGGCAAGGTCCATGGCCCATTTTTCTAATAGGATTACT
B4: LOG4-A mut (dsDNA)
DNA 1: B3 DNA 1 with G21A, G22A, G23A, C24A, C25A
DNA 2: B3 DNA 2 with G21T, G22T, C23T, C24T, C25T
B5: GA2ox5-A WT (dsDNA)
DNA 1: CAATTGTTTTGTGGGGAAAGGGTGCCCTTTCTTTTTTATTCCAA
DNA 2: TTGGAATAAAAAAGAAAGGGCACCCTTTCCCCACAAAACAATTG
B6: GA2ox5-A mut (dsDNA)
DNA 1: B5 DNA 1 with G21A, G22A, C25A, C26A
DNA 2: B5 DNA 2 with G19T, G20T, C23T, C24T
B7: CKX7-A WT (dsDNA)
DNA 1: CCCCGACATCTAAAGAGTGGGCCCAAATATCAGATAAATCAAGAACA
DNA 2: TGTTCTTGATTTATCTGATATTTGGGCCCACTCTTTAGATGTCGGGG
B8: CKX7-A mut (dsDNA)
DNA 1: B7 DNA 1 with G19A, G20A, G21A, C23A, C24A
DNA 2: B7 DNA 2 with G24T, G25T, C27T, C28T, C29T

target: BRC1 (His-BRC1) (Solanum lycopersicum (tomato), UniProt A0A3Q7HTP5 1-406); assay: EMSA; Light Shift Chemiluminescent EMSA kit (Thermo 20148) per manufacturer; buffer, salt, pH and temperature not stated; conditions: protein: recombinant; tags: His (pET-32a); chain copies: 2; label: 3' biotin (probe); blunt
Sequence (A0A3Q7HTP5 entry or part of it): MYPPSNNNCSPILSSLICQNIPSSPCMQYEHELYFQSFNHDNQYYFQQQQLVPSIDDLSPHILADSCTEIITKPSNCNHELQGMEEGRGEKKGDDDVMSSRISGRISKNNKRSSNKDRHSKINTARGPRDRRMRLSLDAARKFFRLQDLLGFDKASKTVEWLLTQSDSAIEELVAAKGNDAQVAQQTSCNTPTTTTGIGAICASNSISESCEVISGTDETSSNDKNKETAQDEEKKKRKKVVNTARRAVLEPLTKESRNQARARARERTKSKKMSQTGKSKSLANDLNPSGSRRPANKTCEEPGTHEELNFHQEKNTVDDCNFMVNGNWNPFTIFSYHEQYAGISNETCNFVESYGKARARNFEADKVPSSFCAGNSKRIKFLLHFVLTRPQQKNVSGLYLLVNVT

Binder	binding result
B1	binds
B2	no binding
B3	binds
B4	no binding
B5	binds
B6	no binding
B7	binds
B8	no binding
